# FireProtDB
# Settings: whole UniProt chain shown; for Tm: Thermal
# [1] = Equus caballus, pH 4, 25 °C, GdnHCl, CD, Citrate 50 mM
# [2] = Equus caballus, pH 4, 25 °C, GdnHCl, CD, Formate 50 mM
# [3] = Equus caballus, pH 4, 25 °C, Urea, CD, Citrate 50 mM
# [4] = Equus caballus, pH 4, 25 °C, Urea, CD, Formate 50 mM
protein,measurement,setting,value
"Inorganic pyrophosphatase wild type, P0A7A9 (protein) MSLLNVPAGKDLPEDIYVVIEIPANADPIKYEIDKESGALFVDRFMSTAMFYPCNYGYINHTLSLDGDPVDVLVPTPYPLQPGSVIRCRPVGVLKMTDEAGEDAKLVAVPHSKLSKEYDHIKDVNDLPELLKAQIAHFFEHYKDLEKGKWVKVEGWENAEAAKAEIVASFERAKNK",Tm,"Escherichia coli (strain K12), pH 7, CD, HEPES 20 mM, MgCl2 5 mM",84 °C
same,Tm,"Escherichia coli (strain K12), pH 7, CD, HEPES 20 mM",58 °C
"DNA-Binding protein G5P wild type, P69542 (protein) MIKVEIKPSQAQFTTRSGVSRQGKPYSLNEQLCYVDLGNEYPVLVKITLDEGQPAYAPGLYTVHLSSFKVGQFGSLMIDRLRLVPAK",unfolding free energy,"Enterobacteria phage fd, pH 7, 25 °C, GdnHCl, CD, MOPS 0.05 M, NaCl 0.1 M, reversible: yes",16.3 kcal/mol
"Outer membrane porin F wild type, P02931 (protein) MMKRNILAVIVPALLVAGTANAAEIYNKDGNKVDLYGKAVGLHYFSKGNGENSYGGNGDMTYARLGFKGETQINSDLTGYGQWEYNFQGNNSEGADAQTGNKTRLAFAGLKYADVGSFDYGRNYGVVYDALGYTDMLPEFGGDTAYSDDFFVGRVGGVATYRNSNFFGLVDGLNFAVQYLGKNERDTARRSNGDGVGGSISYEYEGFGIVGAYGAADRTNLQEAQPLGNGKKAEQWATGLKYDANNIYLAANYGETRNATPITNKFTNTSGFANKTQDVLLVAQYQFDFGLRPSIAYTKSKAKDVEGIGDVDLVNYFEVGATYYFNKNMSTYVDYIINQIDSDNKLGVGSDDTVAVGIVYQF",Tm,"Escherichia coli (strain K12), pH 7.5, CD, Tris 50mM",79.3 °C
"Aspartate carbamoyltransferase catalytic subunit wild type, P0A786 (protein) MANPLYQKHIISINDLSRDDLNLVLATAAKLKANPQPELLKHKVIASCFFEASTRTRLSFETSMHRLGASVVGFSDSANTSLGKKGETLADTISVISTYVDAIVMRHPQEGAARLATEFSGNVPVLNAGDGSNQHPTQTLLDLFTIQETQGRLDNLHVAMVGDLKYGRTVHSLTQALAKFDGNRFYFIAPDALAMPQYILDMLDEKGIAWSLHSSIEEVMAEVDILYMTRVQKERLDPSEYANVKAQFVLRASDLHNAKANMKVLHPLPRVDEIATDVDKTPHAWYFQQAGNGIFARQALLALVLNRDLVL",unfolding free energy,"Escherichia coli (strain K12), pH 8.3, 7.5 °C, Urea, Absorbance, HEPES 0.1 M, reversible: yes",2 kcal/mol
"Shikimate kinase 2 wild type, P10880 (protein) MTEPIFMVGARGCGKTTVGRELARALGYEFVDTDIFMQHTSGMTVADVVAAEGWPGFRRRESEALQAVATPNRVVATGGGMVLLEQNRQFMRAHGTVVYLFAPAEELALRLQASPQAHQRPTLTGRPIAEEMEAVLREREALYQDVAHYVVDATQPPAAIVCELMQTMRLPAA",denaturant midpoint (higher = more stable),"Dickeya chrysanthemi, pH 7.6, 25 °C, Urea, Fluorescence, Tris-HCl 35 mM, KCl 5 mM",2.1 M
"Colicin-A wild type, Q47108 (protein) VAEKAKDERELLEKTSELIAGMGDKIGEHLGDKYKAIAKDIADNIKNFQGKTIRSFDDAMASLNKITANPAMKINKADRDALVNAWKHVDAQDMANKLGNLSKAFKVADVVMKVEKVREKSIEGYETGNWGPLMLEVESWVLSGIASSVALGIFSATLGAYALSLGVPAIAVGIAGILLAAVVGALIDDKFADALNNEIIRPAH",Tm,"Escherichia coli, pH 3, DSC, Na2HPO4-citrate 30 mM, reversible: no",39 °C
same,Tm,"Escherichia coli, pH 3.5, DSC, Na2HPO4-citrate 30 mM, reversible: no",49 °C
same,Tm,"Escherichia coli, pH 4, DSC, Na2HPO4-citrate 30 mM, reversible: no",56 °C
same,Tm,"Escherichia coli, pH 7, DSC, Na2HPO4-citrate 30 mM, reversible: no",69 °C
same,Tm,"Escherichia coli, pH 8, DSC, Na2HPO4-citrate 30 mM, reversible: no",67 °C
"Beta-lactoglobulin-1 wild type, P02758 (protein) MKCLLLALGLALMCGIQATNIPQTMQDLDLQEVAGKWHSVAMAASDISLLDSESAPLRVYIEKLRPTPEDNLEIILREGENKGCAEKKIFAEKTESPAEFKINYLDEDTVFALDTDYKNYLFLCMKNAATPGQSLVCQYLARTQMVDEEIMEKFRRALQPLPGRVQIVPDLTRMAERCRI",denaturant m value,[1],4.74 kcal/mol/M
same,unfolding free energy,[1],10.1 kcal/mol
same,denaturant m value,[2],1.54 kcal/mol/M
same,unfolding free energy,[2],3.92 kcal/mol
same,denaturant m value,[3],2.9 kcal/mol/M
same,unfolding free energy,[3],9.83 kcal/mol
same,denaturant m value,[4],0.74 kcal/mol/M
same,unfolding free energy,[4],2.9 kcal/mol
